Assay results: paper doi:10.1101/2023.06.02.543398 (bioRxiv, 2023)
Ends that are not written are not given here.

B1: MAP7 MT-binding domain (MTBD), residues 59-170 (domain or fragment)
chain: PVLRVDDRQRLARERREEREKQLAAREIVWLEREERARQHYEKHLEERKKRLEEQRQKEERRRAAVEEKRRQRLEEDKERHEAVVRRTMERSQKPKQKHNRWSWGGSLHGSP

Key:
[1] = biological target: B1; assay: fluorescence polarisation
[2] = biological target: Taxol-stabilized microtubules from lyophilized tubulin (Cytoskeleton, Inc.) (UniProt P02550 1-451; P02554 1-445); assay: ITC
Sequence of Taxol-stabilized microtubules from lyophilized tubulin (Cytoskeleton, Inc.) (P02550 whole entry, chain 1 of 2): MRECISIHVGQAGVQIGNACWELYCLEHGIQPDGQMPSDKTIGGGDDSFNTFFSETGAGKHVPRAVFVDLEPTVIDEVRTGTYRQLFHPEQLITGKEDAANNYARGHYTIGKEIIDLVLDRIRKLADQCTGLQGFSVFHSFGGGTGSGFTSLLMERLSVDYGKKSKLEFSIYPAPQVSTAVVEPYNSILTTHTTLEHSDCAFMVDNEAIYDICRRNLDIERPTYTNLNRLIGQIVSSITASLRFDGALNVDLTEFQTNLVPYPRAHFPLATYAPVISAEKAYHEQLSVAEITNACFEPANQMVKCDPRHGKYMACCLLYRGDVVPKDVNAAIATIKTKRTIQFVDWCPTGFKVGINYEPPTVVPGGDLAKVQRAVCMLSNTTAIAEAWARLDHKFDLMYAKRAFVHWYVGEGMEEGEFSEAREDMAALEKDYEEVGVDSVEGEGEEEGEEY
Sequence of Taxol-stabilized microtubules from lyophilized tubulin (Cytoskeleton, Inc.) (P02554 whole entry, chain 2 of 2): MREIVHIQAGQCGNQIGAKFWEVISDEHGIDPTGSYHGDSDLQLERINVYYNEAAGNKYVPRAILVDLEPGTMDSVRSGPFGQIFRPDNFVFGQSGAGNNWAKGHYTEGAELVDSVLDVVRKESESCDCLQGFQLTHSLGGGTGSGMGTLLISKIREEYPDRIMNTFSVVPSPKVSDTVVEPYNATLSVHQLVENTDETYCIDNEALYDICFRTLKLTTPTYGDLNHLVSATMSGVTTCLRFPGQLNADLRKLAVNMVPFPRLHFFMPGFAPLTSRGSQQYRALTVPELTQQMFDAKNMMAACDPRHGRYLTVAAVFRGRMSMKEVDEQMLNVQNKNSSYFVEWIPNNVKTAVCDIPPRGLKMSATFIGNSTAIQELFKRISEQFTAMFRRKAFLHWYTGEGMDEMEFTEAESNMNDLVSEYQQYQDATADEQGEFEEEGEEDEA

Binder | Kd [1] | Kd [2] | stoichiometry N [2]
SVEGEGEEEGEEY (also: NHS-fluorescein label, position not given here) [NHS-fluorescein-labelled α-tubulin carboxy-terminal tail peptide] | 91.3 ± 17.5 µM |  | 
B1 |  | 940 nM | 0.51 ± 0.09 MAP7 MTBD to tubulin
